We go through 17 sequences from the DeepSol protein solubility set.

This series can be described thus: soluble on expression in E. coli; label from the status in PepcDB or PDB records.
Regarding “MTTEHETHAAELGAPEPECARCGKVLPLCICDTVEPIASRTQLLILQHPQEQDRALGTARLTAQHFKNAEVRIGLSWPSLSKALGRTVHDPSRWAVLYLGSARAAELAEGREILAVDAKGQPEPHQDMILDEIEGVVLLDGTWSQAKALWWRNAWMLKCQRVILDPSAPSRYGRLRKEPRRDGLSTLEAAAMLLSRLEHRPEIETKLLEAFDRMLARFKQVQAERPDLAPKPKKRDWRRKKRGLEHHHHHH”, the “soluble on expression in E. coli” value is recorded as “not soluble”. With “MLRRSSVVLARFQPYSMAVQTRFKWRHKETDRWRRLMDATCFQVDWLGQTAGPNFAQYSGHWTHVITCAHVITPWDYPNYYPPQGPTRFVSHITLADTMTQIRLVSMQGNAVYKHFTSNQHVFVHSNPRLDLCVLHPEQNLKRSGEMKMMWMQNEGYISRPRLEINETLKVGDYVWVYGMSAHESLFDEEKGPEPLMIPTGVRARVHAVTREHFFLDTTALEDNPDRGRIQMGMCGSVVMRNGKCVGMLTATVHEESDCKELAGTAMCTYSSDVFEFLLEVEKQMKNPVARQSQEETRFEQRRRAEGGVKEHKHWELDESRTARHIPVPVSLWHMEEKWVTEEDYMNSAVFGRSGAFNQETQESALGYDMNTAKTNGDRPGDIDSFMSTTTTGKPVMQGERKDYSPTGVYANVEEFKNKDVWDYNVSSEMRSLFNETVDSKDAESLNMMRKSLENIRAQRAMEKMKETVMNRTEPGFDPLKGYGHYGGSADAGAANFNPEYASAHKGSGDAYSYAQAAQQAAREQPGDHASPASTPPPSPPPPNESVIDRKKRERREAEAKYQEELRRRHGQRAVPFGDEDLSGFWERR”, the “soluble on expression in E. coli” value was “not soluble”. For the sequence “MTTILSVRDVKKVIGKKTIVENISFDVKQGEVFGFLGPNGAGKTTTIRMLVGLIKETEGTISIGGYSIKENFREAMRQIGSIVENPELYTYLTGWENLKQFARMLGGISDERIIEIAHMVHLDERIHDKVKTYSLGMKQRLGIAQALLGNPKLLILDEPTNGLDPAGIRELREFIHKLVKEENMSVFISSHLLSEVQMICDRVAIIHKGKMITVAKVEELIKTASDRVEWIVTPISKTKDMLVDAEEVREVSIEGDRLLCRMHISSISNWNKTFVENGIDVHSVKELVFTLEDLFIELTRGEQHA”, the “soluble on expression in E. coli” value is recorded as “not soluble”. On to “MNNYTIKDITRASGGFAMLAVDQREAMRLMFAAAGAKTPVADSVLTDFKVNAAKILSPYASAVLLDQQFCYRQAVEQNAVAKSCAMIVAADDFIPGNGIPVDNVVLDKKINAQAVKRDGAKALKLLVLWRSDEDAQQRLNMVKEFNELCHSNGLLSIIEPVVRPPRCGDKFDREQAIIDAAKELGDSGADLYKVEMPLYGKGARSDLLTASQRLNGHINMPWVILSSGVDEKLFPRAVRVAMEAGASGFLAGRAVWSSVIGLPDTELMLRDVSAPKLQRLGEIVDEMMAKRR”, for which the “soluble on expression in E. coli” value was “soluble”.

For the sequence “MGSDKIHHHHHHTEDTFWKDETDFNLALTSCYTPLKNALNGGYYGTRGVMLRIARADEVDFRNDISDVYTVNRFTNSNTNSLTQGMFYQFYNALYRTNSIMQKLEEKKEQFSTDFQNSVKGECLFIRGFYLFQLAKEFKDAPLRLTASQSPSTFPLAKSSQADIWAQAKEDLKTAASLLPITNKIGKPTQGAAYAALGKIYVYEENWQEAINVLEPLTQNPYTYKLVEDFNWNFDDTHENNAESIFELLIEDVGGTDLWGDGENINSTQSNTRPKEYAAAEVGGWYEANPTQQIMDIFWKEKDKDGNFDYRARCSVAWDYEGCTYYQRPFREVFAQDKWKTYWILKYQNWKTQKDEPAPPKSFINERAIRYADVLLMLAEAYMNKGALDTSIGYINQIRRRANLNDYSGPITKEGVFEDLVHQRAIEFFVEGERFYDLRRWGLLEQTLKTCDDTRYKNYQTGKSDNINKFNYFPIPAKELDTNPLCTPSEGW”, the “soluble on expression in E. coli” value is on record as “not soluble”. For “MLNYTGLENKNVLVVGLAKSGYEAAKLLSKLGANVTVNDGKDLSQDAHAKDLESMGISVVSGSHPLTLLDNNPIIVKNPGIPYTVSIIDEAVKRGLKILTEVELSYLISEAPIIAVTGTNGKTTVTSLIGDMFKKSRLTGRLSGNIGYVASKVAQEVKPTDYLVTELSSFQLLGIEKYKPHIAIITNIYSAHLDYHENLENYQNAKKQIYKNQTEEDYLICNYHQRQVIESEELKAKTLYFSTQQEVDGIYIKDGFIVYKGVRIINTEDLVLPGEHNLENILAAVLACILAGVPIKAIIDSLTTFSGIEHRLQYVGTNRTNKYYNDSKATNTLATQFALNSFNQPIIWLCGGLDRGNEFDELIPYMENVRAMVVFGQTKAKFAKLGNSQGKSVIEANNVEDAVDKVQDIIEPNDVVLLSPACASWDQYSTFEERGEKFIERFRAHLPSY” the value was “not soluble”; for “SNSALYNVDAGHRAVIFDRFRGVQDIVVGEGTHFLIPWVQKPIIFDCRSRPRNVPVITGSKDLQNVNITLRILFRPVASQLPRIYTSIGEDYDERVLPSITTEILKSVVARFDAGELITQRELVSRQVSDDLTERAATFGLILDDVSLTHLTFGKEFTEAVEAKQVAQQEAERARFVVEKAEQQKKAAIISAEGDSKAAELIANSLATAGDGLIELRKLEAAEDIAYQLSRSRNITYLPAGQSVLLQLPQ”, “soluble”; for “SGEEANDDKKPTTKFELERETELRFEVEASQSVQLELLTGMAEIFGTELTRNKKFTFDAGAKVAVFTWHGCSVQLSGRTEVAYVSKDTPMLLYLNTHTALEQMRRQAEKEEERGPRVMVVGPTDVGKSTVCRLLLNYAVRLGRRPTYVELDVGQGSVSIPGTMGALYIERPADVEEGFSIQAPLVYHFGSTTPGTNIKLYNKITSRLADVFNQRCEVNRRASVSGCVINTCGWVKGSGYQALVHAASAFEVDVVVVLDQERLYNELKRDLPHFVRTVLLPKSGGVVERSKDFRRECRDERIREYFYGFRGCFYPHAFNVKFSDVKIYKVGAPTIPDSCLPLGMSQEDNQLKLVPVTPGRDMVHHLLSVSTAEGTEENLSETSVAGFIVVTSVDLEHQVFTVLSPAPRPLPKNFLLIMDIRFMDLK”, “not soluble”. For the sequence “MAHHHHHHMAHGSFDAVRKEMETQEKIIATLQRDNESLLREKKEILSRCKQLEHDFEHLEAKHSLLLSAQQDFAVRSNMHTANDSAKIVNLQAQVEELQTNLETEKRRCALLLQERNDLAQSKSDTPSLVGSAEITNVAVVREQQGRSEDIVAKLRESQRIHSIQKSTIDALHSEVTRLESERKVSHSRESNLLREVDSLRTQVRDLESALQQKKGGIRELMSSCQAGSANAQRLKKQETRIRLLEKALLEKDEFTKRAMEELRAEAKKVCERYQSTVAELRQRLEVPKDDPELQKRISTLERENLDLRRALGGASVSLAVESAQPVQKLATEPKHHTDVTDKADKPGGQALKAPGSHELEITHLHSVIERLRAEICEHKQRNITLQSKLDSIHAEWDARLAEMKTNFALQIQTLRSAHNEELSRLEASHQTQLLEISKCSKADRGDSLASRLSRIVEEKGYDASLIAIGERLCFLEKRYCQKEEEKTHELLEMKRVAELEMKIQKEKTDLLLEQKNTQIKRFQVQLDELLAALSILQATS”, the “soluble on expression in E. coli” value is “not soluble”.

For “MSLAAESTYKKLVMLVDDNETDNFIHRRVLEMGNFSKNIIVKNSGKSALEYLEANQSNSELIPEVIFLDINMPIVDGFVFLFEFESFPESIKERCKIIVLSSSDNKKDIDRIVDNDYVVHFITKPLSEDSIAELKKMVEGHHHHHH”, the “soluble on expression in E. coli” value is recorded as “soluble”. For “MSYDYIVSQYLAYIKDITLEGCKAEEIFDYFKDKLNIVSKEGCDKPYIKVYKNNRLYFSYYGIPAINEFWPFLNALVRISNNVIQLDEKEKELAANIRGNIKLFVTPDCTKCPIAAELLYQLPILNSNISLEIIDVTTYDDLGKKHRVLNVPKIVLNEKTEIPGSFPPTIILKMLAKGSEQH”, the “soluble on expression in E. coli” value is listed as “soluble”. Regarding “MGHHHHHHSHMTQDRPLLAVQEALKKCFPVVEEQQGLWQSALRDCQPLLSSLSNLAEQLQAAQNLRFEDVPALRAFPDLKERLRRKQLVAGDIVLDKLGERLAILLKVRDMVSSHVERVFQIYEQHADTVGIDAVLQPSAVSPSVADMLEWLQDIERHYRKSYLKRKYLLSSIQWGDLANIQALPKAWDRISKDEHQDLVQDILLNVSFFLEE”, the “soluble on expression in E. coli” value is “not soluble”. Under “MASSIDPLTRLHGILSSYLSEVLGVDRSVVERLLAPPPRKEYGDLGFPLMRFARSSNASADSIVESLRGKLWERGITWASPTLEAGYLNIVFDVEKLGDEVFRLLASGWRPSTARTSRPETIVVEHTSANPIHPLHLGHARNSSLGDALARLLEARGHRVNRRFYVDDVGRQAVVASLGFKLSGVTPRELASRMGVKVDHAVGWVYAVTHNALETVTARKRGDTSKVDEALSTLARLKERGDREVFDRILEAVGSLDDPEGLVSEMMRKYERGEEPEKSLIRGVVSAVLEGFRETLGRFGVDFDDWDWESDLLWSGLVNKIIEEARRSPFLTTHKDAIALDIPRIVREVLARDPEAASTIKLPRSLEIPPLILVRSDGTTLYTTRDLAYSVYKFRVTGADRVINVIGADQRLPQLQIRLALLGLGYRREALNMMHYDYEIVSLPGRRMSSRRGEYVTLDELLEMAKARSVREVESRNPGADRDWIESTAEKIAVGAVRFALVRPGRLKPITLDVERILDLKENTAPYLQYTYARASSILEKHGEIDYLKAHPASLEEGSRRELFVEALRFPLVSAKAADDLAPEDLASYLLRLADMFNSWYQKDSVIHEEWEGARHAKAALVLLVKSVIGEGLRLLGVEPLEKM” stands “soluble”; under “GPGSMSANDVQNPPVEDDEVPTLEAADTQQASKPSKRYAKAMAKMGLKPEPNISKVHIRKRAALSFVVNQPEVYRFPGTNTFLIFGEAQLGDTTMQTQEAAARAVSGALVEEVGTAGEETSELAGETPAAAAPSESKQTPDDVEIVEGEFDDKEIAVVMAQGKTDRIGAIRALRNNKGDIVNAIMELTMDPN”, “not soluble”; under “MSGLPQGRPTFGAAQNVSAVVAYDLSAHMLDVVAQAAEARQLKNITTRQGYAESLPFADNAFDIVISRYSAHHWHDVGAALREVNRILKPGGRLIVMDVMSPGHPVRDIWLQTVEALRDTSHVRNYASGEWLTLINEANLIVDNLITDKLPLEFSSWVARMRTPEALVDAIRIYQQSASTEVRTYFALQNDGFFTSDIIMVDAHKAALEHHHHHH”, “not soluble”.

For the sequence “MGSDKIHHHHHHMIPRNEYLENLISFRDKQLIKVVTGIRRCGKSTLFELYQDYLLQNDVKPEQIIAFNLEDGDWAEIENSKDLYELVKARLLPDRMNYVFLDEVQRVTDFQKAVDSLFIKKNCDVYITGSNAYLLSGELATLLSGRYVEIKMLPLSFKEYVSAFPPDSSIDRLYQDYIHNSSFPYTLELKRQKDIRQYLDGLYDSIVLKDIVARRRFPDLAMLQSVVRFLFDNIGNLCSTKKIADTMTSAGRKITVHTVESYLTALTDSFIFYRVGRYDVKGKQYLKTGDKYYAADMGLRYNALGTKKADAGHILENIVYLELLRRGYEVHIGKVGAAEIDFIAIGPEGEEYYQVAYTVMDADGKTLQRELAPLDAISDHNPKFLLTMDHGPLVSHNGIKQLNALDWLLK”, the “soluble on expression in E. coli” value is listed as “not soluble”. For “MGSDKIHHHHHHMSLALQYFKALSDETRLRLIHVLNRHELSVNELVSILEMGQSRVSRHLKILTGAGLLTSRRDGLWVFYSAAAEGDGRAFLDAVTPFVTTDMVLQADLDMAQKIIEERALKTRQFFNAIAEDWDELNREVLGGFDLAGAVAEAMPQCETAVDLGCGTGSVIERMLQRSQQVIGVDGSPRMLELARRRFVEGAERVSLRIGELDHLPLRDGEADFASINMVLHHLSDPGVALGEIRRVLRLGGQLMVTDFDRHDNERMRSDYGDRWLGFEGVQLEGLLREAGFTVRECRRQGVAKGLALHLMLAEKTQQ” the value was “not soluble”.
